Experimental data reported in publication PMC7921949.

Molecular target: PD-L1 on CT26 murine colon cancer cells (mouse (CT26)) (UniProt Q9EP73)
Assay: flow cytometry on CT26 cells
Details: apparent Kd on whole cells, PBS, room temperature, 30 min, 2x10^5 CT26 cells in 250 uL, three PBS washes, Y = Bmax X/(Kd + X), n = 2

Chain of PD-L1 on CT26 murine colon cancer cells (mouse (CT26)) (Q9EP73 19-290): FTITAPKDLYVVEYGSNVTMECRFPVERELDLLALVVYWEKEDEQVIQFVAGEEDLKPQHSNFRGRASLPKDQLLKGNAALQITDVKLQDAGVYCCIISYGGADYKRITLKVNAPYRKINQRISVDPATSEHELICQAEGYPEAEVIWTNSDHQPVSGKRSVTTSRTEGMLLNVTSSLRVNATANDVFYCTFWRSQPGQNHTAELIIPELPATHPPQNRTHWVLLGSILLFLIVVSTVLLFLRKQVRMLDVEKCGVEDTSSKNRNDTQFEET

Sequence | Kd [nM] | Kd (tetravalent, first nt at 5' end of each strand phosphorothioate in some Apt-HJ, unclear for binding assay) [nM]
ACGGGCCACATCAACTCATTGATAGACAATGCGTCCACTGCCCGT [free PD-L1 aptamer (Apt)] | 283 | 
CGGCGATCCGGCCATAGTGGATTGCGGGCCAGTGAAAAAAACGGGCCACATCAACTCATTGATAGACAATGCGTCCACTGCCCGT / CTCACTGGCCCGCAATCCTGAGCACGTGGCTGACGAAAAAACGGGCCACATCAACTCATTGATAGACAATGCGTCCACTGCCCGT / CCGTCAGCCACGTGCTCACCGAATGCTGCGCAACCAAAAAACGGGCCACATCAACTCATTGATAGACAATGCGTCCACTGCCCGT / CGGTTGCGCAGCATTCGGACTATGGCCGGATCGCCAAAAAACGGGCCACATCAACTCATTGATAGACAATGCGTCCACTGCCCGT [Apt-HJ (tetravalent aptamer Holliday junction)] |  | 145
